One assay concerns the target T1, PPARδ LBD / RXRα LBD (Homo sapiens, UniProt Q03181).
T1 sequence (Q03181 139-441): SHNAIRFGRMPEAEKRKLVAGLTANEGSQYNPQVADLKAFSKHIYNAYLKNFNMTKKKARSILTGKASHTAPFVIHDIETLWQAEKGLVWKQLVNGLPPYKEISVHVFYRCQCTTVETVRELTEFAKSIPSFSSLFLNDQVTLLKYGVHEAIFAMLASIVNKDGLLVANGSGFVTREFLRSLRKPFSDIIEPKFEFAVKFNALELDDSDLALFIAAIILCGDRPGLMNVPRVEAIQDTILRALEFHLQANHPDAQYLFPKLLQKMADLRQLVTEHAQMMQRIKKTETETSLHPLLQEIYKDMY
T1 sequence (P19793 225-462 partner limits assumed): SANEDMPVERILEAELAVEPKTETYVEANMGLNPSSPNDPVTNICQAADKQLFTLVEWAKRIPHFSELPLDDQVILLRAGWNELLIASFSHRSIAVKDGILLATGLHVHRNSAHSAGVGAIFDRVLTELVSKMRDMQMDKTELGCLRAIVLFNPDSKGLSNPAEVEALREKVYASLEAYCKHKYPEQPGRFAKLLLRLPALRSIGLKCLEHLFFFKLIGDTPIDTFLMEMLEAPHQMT
The experiment in a line: FRET assay: ligand effect on RXRα LBD binding to PPAR LBD. Particulars: 10 nM PPAR LBD, 4 concentrations of RXR.

The target of assay [1] is T2, PPARδ LBD (Homo sapiens, UniProt Q03181).
T2 construct: made in house; host or cells: bacterial BL21-DE3, vector pRSETA
T2 sequence (Q03181 139-441): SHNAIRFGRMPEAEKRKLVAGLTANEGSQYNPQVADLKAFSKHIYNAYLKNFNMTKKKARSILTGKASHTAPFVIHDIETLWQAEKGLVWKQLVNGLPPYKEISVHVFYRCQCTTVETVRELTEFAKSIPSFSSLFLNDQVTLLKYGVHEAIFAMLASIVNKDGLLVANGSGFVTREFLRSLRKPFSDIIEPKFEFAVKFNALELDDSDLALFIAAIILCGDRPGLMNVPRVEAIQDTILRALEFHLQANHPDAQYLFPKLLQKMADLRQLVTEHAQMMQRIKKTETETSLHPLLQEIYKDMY
Put plainly: Fluorescence polarization assay for ligand modulation of nuclear receptor/cofactor peptide affinities. The format is biochemical. Particulars: result in words. For orientation: In fluorescence polarisation assays a small probe gives low polarisation when free and higher when bound to something large.

The next assay addresses T3, full length human PPARα (Homo sapiens, UniProt Q07869).
T3 construct: expressed in transfected cells; host or cells: CV-1 cells, vector pVP16 (Clonetech)
T3 sequence (Q07869 1-468): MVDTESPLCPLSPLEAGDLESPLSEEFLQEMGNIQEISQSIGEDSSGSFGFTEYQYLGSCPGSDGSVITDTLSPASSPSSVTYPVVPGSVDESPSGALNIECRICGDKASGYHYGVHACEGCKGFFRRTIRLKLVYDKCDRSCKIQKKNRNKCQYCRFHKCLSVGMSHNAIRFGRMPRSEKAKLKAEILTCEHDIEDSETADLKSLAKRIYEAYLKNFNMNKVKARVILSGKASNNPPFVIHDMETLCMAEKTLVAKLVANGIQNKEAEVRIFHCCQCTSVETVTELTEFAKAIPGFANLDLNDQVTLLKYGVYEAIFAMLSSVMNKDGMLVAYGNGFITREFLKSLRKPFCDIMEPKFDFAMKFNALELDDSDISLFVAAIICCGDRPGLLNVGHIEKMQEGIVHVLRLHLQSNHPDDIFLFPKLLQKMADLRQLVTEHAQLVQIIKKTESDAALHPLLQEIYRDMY
Put plainly: Mammalian two-hybrid assay (CV-1 cells). The format is cell-based. The conditions noted are these: VP16-PPARα, GAL4-NCoR (2239-2300), result in words. An excerpt: (§1) Mammalian two-hybrid assays were used to examine the ability of the tyrosine-based class of PPAR ligands to promote association or dissociation of the co-activator CBP and the corepressor NCoR in the context of a cellular environment. The assays for the three PPAR subtypes used full length human PPARα, PPARγ2 or PPARδ fused to the activation domain of VP16 and previously identified interaction domains of CBP and NCoR fused to the DNA binding domain of GAL4.
(§2) Expression plasmids for the VP16-human PPAR constructs were prepared by inserting amplified cDNAs encoding full length PPARα, PPARγ2 and PPARδ fused to amino acids 410-490 of the VP16 viral activation domain, into the expression vector pVP16 (Clonetech). […] The reporter plasmid was (UAS)5-tk-SPAP, and the internal control plasmid for all transfections was β-galactosidase expression vector (pCH110, Amersham).
(§3) CV-1 cells were maintained in culture in DME high glucose medium supplemented with 10% FBS and 2 mM glutamine in a humidified incubator (5% CO2 in air) at 37° C. Cells were harvested 72 hours prior to experimental use and placed in phenol red free D-MEM/F-12 medium with 15 mM HEPES supplemented with 10% charcoal/dextran-treated FBS (HyClone, Logan, Utah). The cells were harvested and seeded at 2.0×10^4 cell per well in a 96-well plate the day prior to transfection. Cells were transfected for 16 hr using Lipofectamine (Life Technologies, Inc., Rockville, Md.) essentially according to the manufacturer's instructions. The total amount of DNA transfected into each well was 80 ng. Transfection mixtures contained 8 ng VP16-PPAR plasmid, 8 ng SPAP reporter, 25 ng of pCH110(β-galactosidase) control plasmid, 35 ng of pBluescript II KS+ (Clonetech) and 4 ng of either coactivator or corepressor plasmid. Transfection quantities for full length PPAR and cofactor plasmids were optimized to generate a signal that was half of the maximal activation. These conditions would allow for dissociation or association to be experimentally determined for each ligand evaluated. Stock solutions of drugs were prepated in DMSO and dilutions were made in phenol red-free D-MEM/F-12 with 15 mM HEPES supplemented with 10% charcoal stripped, delipidated, heat inactivated (62° C. for 35 min) bovine calf serum (Sigma, St. Louis, Mo.) such that the final concentration of DMSO was 0.1%. Transfection mixtures were aspirated and 100 μl, of medium containing drug was added to each well.

Another assay concerns the target T4, full length human PPARδ (Homo sapiens, UniProt Q03181).
T4 construct: expressed in transfected cells; host or cells: CV-1 cells, vector pVP16 (Clonetech)
Put plainly: Mammalian two-hybrid assay (CV-1 cells). The format is cell-based. The conditions noted are these: VP16-PPARδ, GAL4-NCoR (2239-2300), result in words.
Text: as §1, §2, §3

The target of the next assay is T5, PPARα LBD (Homo sapiens, UniProt Q07869).
T5 construct: made in house; host or cells: bacterial BL21-DE3, vector pRSETA
T5 sequence (Q07869 192-468): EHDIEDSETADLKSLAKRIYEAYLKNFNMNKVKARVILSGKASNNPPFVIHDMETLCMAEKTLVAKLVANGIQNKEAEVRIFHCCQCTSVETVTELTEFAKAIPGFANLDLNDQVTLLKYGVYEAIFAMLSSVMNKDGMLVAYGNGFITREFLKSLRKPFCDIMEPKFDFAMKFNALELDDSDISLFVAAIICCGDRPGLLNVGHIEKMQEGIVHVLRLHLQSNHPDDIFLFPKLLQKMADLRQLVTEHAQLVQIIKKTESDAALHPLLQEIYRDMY
Put plainly: FRET assay: ligand effect on CBP fragment / NCoR ID-C binding to PPAR LBD. The format is biochemical. Particulars: 10 nM PPAR LBD, CBP (57-454). An excerpt: (§4) The experimentally determined α value is the ratio of cofactor affinities in the presence and absence of a saturating concentration of ligand. This analysis permits a direct comparison of the effects of compounds, independent of cofactor concentration and differences in coregulator affinity for the individual receptors. […] 98(9): p.
(§5) The effects of the coregulator environment on the apparent affinities and selectivities of various ligands were than examined. Experimentally determined pKs and the α values derived from the FRET assay were used to calculate the apparent affinity of the ligand for the receptor/cofactor complex (i.e. K/α).
(§6) FIG. 5 illustrates the effect of ligands on coactivator and corepressor binding to PPAR subtypes determined by FRET.

Assay [2] concerns the target T2, PPARδ LBD. The assay is described as above. The format is biochemical.
Text: as §4, §5, §6

Assay [3] addresses T6, VP16-human PPARγ2 (full length) (human, UniProt P06492 410-490; P37231 1-505).
T6 construct: also called VP16 full length PPARγ
The experiment in a line: mammalian two-hybrid in CV-1 cells.

The target of assay [4] is T7, VP16-human PPARδ (full length) (human, UniProt P06492 410-490; Q03181 1-441).
T7 construct: also called VP16 full length PPARδ
The experiment in a line: mammalian two-hybrid in CV-1 cells.

Assay [5] addresses T8, VP16-human PPARα (full length) (human, UniProt P06492 410-490; Q07869 1-468).
T8 construct: also called VP16 full length PPARα
Put plainly: mammalian two-hybrid in CV-1 cells.

In assay [6] the target is T9, human PPARδ ligand binding domain (amino acids 139-441) (human, UniProt Q03181 139-441, Biotinylated (site not stated) in the FRET assays; unlabelled in fluorescence polarization and SPR.).
T9 construct: placed at the N-terminus here; Biotinylated for FRET; also called PPARδ LBD
T9 sequence: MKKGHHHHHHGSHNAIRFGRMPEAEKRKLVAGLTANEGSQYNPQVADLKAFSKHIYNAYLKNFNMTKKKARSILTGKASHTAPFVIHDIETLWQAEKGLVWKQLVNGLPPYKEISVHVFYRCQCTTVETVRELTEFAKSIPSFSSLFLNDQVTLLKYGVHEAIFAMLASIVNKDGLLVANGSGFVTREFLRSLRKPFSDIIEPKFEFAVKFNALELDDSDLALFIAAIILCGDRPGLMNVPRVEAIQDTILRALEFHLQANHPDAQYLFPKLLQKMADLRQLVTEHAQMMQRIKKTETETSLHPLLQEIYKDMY
Put plainly: fluorescence polarization, apparent affinity, no ligand.

Assay [7] has as its target T10, human PPARγ ligand binding domain (amino acids 206-477) (human, UniProt P37231-2 206-477).
T10 construct: range 206-477; placed at the N-terminus here; Biotinylated for FRET; also called PPARγ LBD
T10 sequence: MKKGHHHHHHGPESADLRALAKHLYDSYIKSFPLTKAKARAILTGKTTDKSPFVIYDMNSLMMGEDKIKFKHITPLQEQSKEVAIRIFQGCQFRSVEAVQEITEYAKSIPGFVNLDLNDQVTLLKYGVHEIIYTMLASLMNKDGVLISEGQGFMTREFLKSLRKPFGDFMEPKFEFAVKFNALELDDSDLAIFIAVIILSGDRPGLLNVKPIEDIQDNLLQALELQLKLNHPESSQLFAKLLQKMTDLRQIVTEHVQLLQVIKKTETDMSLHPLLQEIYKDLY
The description is as above.

The target in assay [8] is T9, human PPARδ ligand binding domain …. The experiment in a line: fluorescence polarization, apparent affinity, with rosiglitazone.
The target in assay [9] is T10, human PPARγ ligand binding domain …. Described as above.
The target of assay [10] is T9, human PPARδ ligand binding domain …. Put plainly: fluorescence polarization, apparent affinity, with GW1929.
Assay [11] addresses T10, human PPARγ ligand binding domain …. The assay is described as above.

No end group written: not given here. *: point of attachment. Biotin = O=C1N[C@H]2[C@H](CS[C@H]2CCCCC(=O)*)N1

T4 sequence (Q03181 whole entry): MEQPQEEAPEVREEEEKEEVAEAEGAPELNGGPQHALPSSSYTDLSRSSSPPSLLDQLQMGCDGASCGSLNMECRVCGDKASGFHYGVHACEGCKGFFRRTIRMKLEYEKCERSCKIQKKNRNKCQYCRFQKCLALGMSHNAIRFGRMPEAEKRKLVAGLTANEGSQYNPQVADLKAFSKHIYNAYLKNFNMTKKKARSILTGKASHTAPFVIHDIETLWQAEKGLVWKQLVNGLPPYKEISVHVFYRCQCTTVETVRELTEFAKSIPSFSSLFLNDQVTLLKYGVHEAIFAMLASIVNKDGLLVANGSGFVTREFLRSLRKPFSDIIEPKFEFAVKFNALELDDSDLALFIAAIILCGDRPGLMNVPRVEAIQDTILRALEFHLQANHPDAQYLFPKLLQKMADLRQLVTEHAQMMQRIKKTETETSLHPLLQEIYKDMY

On to `CN(CCOc1ccc(C[C@H](Nc2ccccc2C(=O)c2ccccc2)C(=O)O)cc1)c1ccccn1` [GW1929], for which, on PPARδ LBD / RXRα LBD, the “promotion of association of PPARδ with RXR” value is listed as “most effective”. At PPARδ LBD [1], the “effect on PPARδ interaction with the coactivator peptide (TRAP220)” value is “little or no effect”. At full length human PPARα, the “effect on PPARα interaction with NCoR” value is “neither GW1929 nor GW7845 were able to promote association with NCoR”. On full length human PPARδ, the “effect on PPARδ interaction with NCoR” value is listed as “slightly promote association”. The “effect on apparent affinity of PPARα for the co-activator fragment from CBP” value on PPARα LBD is given as “increased the apparent affinity”. Further, at PPARδ LBD [2] (10 nM PPAR LBD, CBP (57-454)), the “effect on apparent affinity of PPARδ for the co-activator fragment from CBP” value is given as “increased the apparent affinity”. Also, the “effect on affinity of PPARδ for the co-repressor peptide” value at PPARδ LBD [2] (10 nM PPAR LBD, NCoR ID-C) is “greatest effect”. Further, the “log α (NCoR association with PPARδ)” value at PPARδ LBD [2] (α = ratio of cofactor affinities in presence and absence of saturating ligand) is 0.52.

B1: GAL4-NcoR (2012-2103) (other)
chain: MKLLSSIEQACDICRLKKLKCSKEKPKCAKCLKNNWECRYSPKTKRSPLTRAHLTEVESRLERLEQLFLLIFPREDLDMILKMDSLQDIKALLTGLFVQDNVNKDAVTDRLASVETDMPLTLRQHRISATSSSEESSNKGQRQLTVSGPLHHYRPQQESPSPQQQLPPSSQAEGMGQVPRTHRLITLADHICQIITQDFARNQVSSQTPQQPPTSTFQNSPSALVSTPVRTKTSNRYSP
notes: range 1-147;range 2012-2103; also called NCoR fragment (2012-2103) that contained NCoR ID-N
On to B1, for which the binding result in [3], in assay [4] and in assay [5] was “no binding” in each case.
In the case of Biotin-GHGEDFSKVSQNPILTSLLQITGNG (not fully specified; printed as biotin-GHGEDFSKVSQNPILTSLLQITGNG, also called TRAP220 575-599) [TRAP220 peptide (amino acids 575-599)], the Kd in assay [6] is 2300 nM; in assay [7], 3900 nM; in [8] it was 1800 nM; in assay [9], 1500 nM; in assay [10] it was 3400 nM; in assay [11], 790 nM.

(Values after patent US20050227220A1, “Compositions and Methods for Evaluating and Designing Nuclear Receptor Ligands that Modulate Co-Regulator Affinity” (priority 2002, published 2005).)
